# Measurements as given in the supplement of paper PMC9112550, “Optimization of the antimicrobial peptide Bac7 by deep mutational scanning” (BMC Biology, 2022).
# Test system: Escherichia coli TOP10
# Experiment: shrunken log2 fold change of peptide-encoding DNA abundance (4.5 h post-induction vs induction); higher = less antimicrobial activity (less host growth inhibition)
# Conditions: time post-induction: 4.5 h; library: site-saturation at positions 5, 18, 19, 20
# 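Also: peptides expressed intracellularly from a pBAD plasmid library in pooled LB shake-flask culture, induced with 0.3% L-arabinose, DNA abundance read by NGS, three biological replicates, DESeq2 with apeglm shrinkage.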
row,Sequence,shrunken log2 fold change
1,RRIRGRPPRLPRPRPRPFFQPRP,0.103
2,RRIRGRPPRLPRPRPRPSFHPRP,-0.17
3,RRIRVRPPRLPRPRPRPHKWPRP,-0.0581
4,RRIRNRPPRLPRPRPRPVHQPRP,-0.121
5,RRIRQRPPRLPRPRPRPVMIPRP,-0.286
6,RRIRARPPRLPRPRPRPRHAPRP,0.612
7,RRIRDRPPRLPRPRPRPIHLPRP,-0.0597
8,RRIRFRPPRLPRPRPRPTPNPRP,0.296
9,RRIRYRPPRLPRPRPRPGWQPRP,0.015
10,RRIRIRPPRLPRPRPRPGMWPRP,0.0422
11,RRIRNRPPRLPRPRPRPPHWPRP,0.406
12,RRIRKRPPRLPRPRPRPIITPRP,0.0225
13,RRIRDRPPRLPRPRPRPYYPPRP,-0.248
14,RRIRERPPRLPRPRPRPFACPRP,-0.433
15,RRIRFRPPRLPRPRPRPKYGPRP,-0.234
16,RRIRPRPPRLPRPRPRPNWHPRP,-0.0472
17,RRIRGRPPRLPRPRPRPCADPRP,1.48
18,RRIRWRPPRLPRPRPRPINFPRP,-0.143
19,RRIRERPPRLPRPRPRPTWHPRP,0.358
20,RRIRARPPRLPRPRPRPRCAPRP,0.716
21,RRIRMRPPRLPRPRPRPMLVPRP,0.2
22,RRIRFRPPRLPRPRPRPKMGPRP,-0.122
23,RRIRSRPPRLPRPRPRPTQTPRP,1.09
24,RRIRCRPPRLPRPRPRPSCSPRP,-0.482
25,RRIRWRPPRLPRPRPRPESQPRP,0.185

row,Sequence,shrunken log2 fold change
1,RRIRARPPRLPRPRPRPFNQPRP,-0.257
2,RRIRTRPPRLPRPRPRPYIFPRP,-0.947
3,RRIRHRPPRLPRPRPRPQPFPRP,-0.213
4,RRIRARPPRLPRPRPRPLHQPRP,0.147
5,RRIRGRPPRLPRPRPRPFLRPRP,-0.0587
6,RRIRARPPRLPRPRPRPNKMPRP,-0.177
7,RRIRFRPPRLPRPRPRPVRHPRP,0.0636
8,RRIRKRPPRLPRPRPRPIHSPRP,-0.00784
9,RRIRGRPPRLPRPRPRPDNTPRP,0.204
10,RRIRDRPPRLPRPRPRPVMYPRP,-0.166
11,RRIRFRPPRLPRPRPRPMGNPRP,-0.707
12,RRIRKRPPRLPRPRPRPPPGPRP,0.961
13,RRIRYRPPRLPRPRPRPVLGPRP,0.0727
14,RRIRWRPPRLPRPRPRPMLWPRP,0.0929
15,RRIRGRPPRLPRPRPRPQMCPRP,0.522
16,RRIRERPPRLPRPRPRPSMDPRP,-0.355
17,RRIRFRPPRLPRPRPRPGPLPRP,0.262
18,RRIRYRPPRLPRPRPRPPAAPRP,0.454
19,RRIRLRPPRLPRPRPRPIFGPRP,0.0171
20,RRIRHRPPRLPRPRPRPWFHPRP,-0.525
21,RRIRRRPPRLPRPRPRPYIEPRP,-0.338
22,RRIRYRPPRLPRPRPRPCDIPRP,-0.334
23,RRIRHRPPRLPRPRPRPRVRPRP,0.0975
24,RRIRIRPPRLPRPRPRPHCWPRP,-0.27
25,RRIRQRPPRLPRPRPRPVNWPRP,0.472

row,Sequence,shrunken log2 fold change
1,RRIRMRPPRLPRPRPRPACAPRP,0.837
2,RRIRKRPPRLPRPRPRPSAQPRP,1.84
3,RRIRGRPPRLPRPRPRPHRPPRP,-0.00248
4,RRIRRRPPRLPRPRPRPPGHPRP,0.507
5,RRIRIRPPRLPRPRPRPIPAPRP,-0.0353
6,RRIRQRPPRLPRPRPRPVGQPRP,0.0327
7,RRIRDRPPRLPRPRPRPPMSPRP,0.137
8,RRIRVRPPRLPRPRPRPCNCPRP,-0.0105
9,RRIRMRPPRLPRPRPRPGGSPRP,1.07
10,RRIRERPPRLPRPRPRPVKHPRP,0.0875
11,RRIRMRPPRLPRPRPRPFRMPRP,0.00199
12,RRIRSRPPRLPRPRPRPNKHPRP,-0.507
13,RRIRMRPPRLPRPRPRPREEPRP,1.41
14,RRIRARPPRLPRPRPRPISLPRP,-0.0678
15,RRIRRRPPRLPRPRPRPEGEPRP,1.17
16,RRIRARPPRLPRPRPRPAWMPRP,-0.00906
17,RRIRMRPPRLPRPRPRPNNCPRP,-0.167
18,RRIRFRPPRLPRPRPRPLHGPRP,-0.216
19,RRIRRRPPRLPRPRPRPYMSPRP,-0.054
20,RRIRRRPPRLPRPRPRPRHMPRP,-0.0552
21,RRIRRRPPRLPRPRPRPGGSPRP,0.0293
22,RRIRKRPPRLPRPRPRPIHWPRP,0.137
23,RRIRRRPPRLPRPRPRPDRMPRP,-0.00208
24,RRIRVRPPRLPRPRPRPHTQPRP,0.00176
25,RRIRVRPPRLPRPRPRPLIMPRP,-0.502

row,Sequence,shrunken log2 fold change
1,RRIRSRPPRLPRPRPRPFIVPRP,-0.477
2,RRIRARPPRLPRPRPRPLWQPRP,0.136
3,RRIRVRPPRLPRPRPRPCDCPRP,0.00675
4,RRIRPRPPRLPRPRPRPAQIPRP,0.175
5,RRIRMRPPRLPRPRPRPFYNPRP,-0.141
6,RRIRMRPPRLPRPRPRPDSHPRP,-0.025
7,RRIRFRPPRLPRPRPRPILKPRP,-0.43
8,RRIRMRPPRLPRPRPRPTHAPRP,0.995
9,RRIRFRPPRLPRPRPRPMFIPRP,-0.443
10,RRIRQRPPRLPRPRPRPSFVPRP,-0.161
11,RRIRRRPPRLPRPRPRPQKNPRP,0.204
12,RRIRDRPPRLPRPRPRPAMNPRP,0.139
13,RRIRFRPPRLPRPRPRPRNHPRP,-0.132
14,RRIRFRPPRLPRPRPRPYQPPRP,-0.269
15,RRIRTRPPRLPRPRPRPGEQPRP,0.15
16,RRIRVRPPRLPRPRPRPHGQPRP,-0.0326
17,RRIRSRPPRLPRPRPRPDEAPRP,-0.104
18,RRIRYRPPRLPRPRPRPFIKPRP,-0.263
19,RRIRRRPPRLPRPRPRPDFCPRP,-0.0293
20,RRIRMRPPRLPRPRPRPSWMPRP,-0.0767
21,RRIRERPPRLPRPRPRPYLDPRP,-0.149
22,RRIRWRPPRLPRPRPRPQVTPRP,-0.0309
23,RRIRMRPPRLPRPRPRPANDPRP,0.0988
24,RRIRHRPPRLPRPRPRPYEEPRP,-0.431
25,RRIRTRPPRLPRPRPRPSNTPRP,-0.732

row,Sequence,shrunken log2 fold change
1,RRIRMRPPRLPRPRPRPIGEPRP,0.0433
2,RRIRYRPPRLPRPRPRPFYWPRP,-1.7
3,RRIRQRPPRLPRPRPRPMTCPRP,0.0215
4,RRIRFRPPRLPRPRPRPPGTPRP,0.316
5,RRIRQRPPRLPRPRPRPTMVPRP,-0.148
6,RRIRVRPPRLPRPRPRPVHVPRP,-0.0459
7,RRIRVRPPRLPRPRPRPADQPRP,0.0278
8,RRIRYRPPRLPRPRPRPESTPRP,-0.00514
9,RRIRGRPPRLPRPRPRPQCPPRP,0.337
10,RRIRWRPPRLPRPRPRPLEHPRP,0.165
11,RRIRHRPPRLPRPRPRPKDDPRP,-0.152
12,RRIRARPPRLPRPRPRPYAKPRP,0.249
13,RRIRYRPPRLPRPRPRPLWTPRP,-0.563
14,RRIRPRPPRLPRPRPRPHFFPRP,0.118
15,RRIRTRPPRLPRPRPRPIRYPRP,-0.0148
16,RRIRPRPPRLPRPRPRPHANPRP,-0.0736
17,RRIRKRPPRLPRPRPRPKCYPRP,-0.0561
18,RRIRWRPPRLPRPRPRPQGYPRP,-0.0909
19,RRIRERPPRLPRPRPRPNGPPRP,-0.0578
20,RRIRQRPPRLPRPRPRPGQFPRP,0.121
21,RRIRNRPPRLPRPRPRPFYMPRP,-0.18
22,RRIRDRPPRLPRPRPRPHFWPRP,-0.0278
23,RRIRWRPPRLPRPRPRPDGVPRP,-0.1
24,RRIRWRPPRLPRPRPRPDFLPRP,-0.221
25,RRIRDRPPRLPRPRPRPTSCPRP,0.037

row,Sequence,shrunken log2 fold change
1,RRIRIRPPRLPRPRPRPQWCPRP,0.307
2,RRIRYRPPRLPRPRPRPRRLPRP,-0.385
3,RRIRDRPPRLPRPRPRPLFIPRP,-0.184
4,RRIRSRPPRLPRPRPRPGKIPRP,-0.596
5,RRIRIRPPRLPRPRPRPLPDPRP,0.0943
6,RRIRLRPPRLPRPRPRPDHHPRP,-0.769
7,RRIRRRPPRLPRPRPRPFTHPRP,-0.174
8,RRIRPRPPRLPRPRPRPGKKPRP,0.00372
9,RRIRGRPPRLPRPRPRPILKPRP,0.316
10,RRIRRRPPRLPRPRPRPIGTPRP,0.00964
11,RRIRQRPPRLPRPRPRPTNSPRP,-0.225
12,RRIRERPPRLPRPRPRPPIMPRP,-0.314
13,RRIRHRPPRLPRPRPRPTYDPRP,-0.0607
14,RRIRSRPPRLPRPRPRPIHKPRP,-0.165
15,RRIRERPPRLPRPRPRPIIRPRP,-0.447
16,RRIRGRPPRLPRPRPRPDVKPRP,0.356
17,RRIRLRPPRLPRPRPRPEQTPRP,-0.000687
18,RRIRPRPPRLPRPRPRPSQQPRP,0.0138
19,RRIRCRPPRLPRPRPRPGHAPRP,0.297
20,RRIRVRPPRLPRPRPRPGKEPRP,-0.0126
21,RRIRVRPPRLPRPRPRPGKYPRP,-0.493
22,RRIRNRPPRLPRPRPRPWKKPRP,-0.0178
23,RRIRYRPPRLPRPRPRPTLGPRP,-0.16
24,RRIRRRPPRLPRPRPRPYYQPRP,-0.617
25,RRIRFRPPRLPRPRPRPNRNPRP,-0.836
